pIC50: −log10 of the molar value.
Assays:
[1] = target: Bordetella pertussis toxin (PT) holotoxin (Bordetella pertussis) (UniProt P04977); experiment: FACS; conditions: natural protein
[2] = target: Bordetella pertussis toxin (PT) holotoxin (Bordetella pertussis) (UniProt P04977); experiment: FACS; conditions: natural protein; remark: listed apart in the source

Chain of α1-antitrypsin (Prolastin, plasma-derived) (P01009 25-418): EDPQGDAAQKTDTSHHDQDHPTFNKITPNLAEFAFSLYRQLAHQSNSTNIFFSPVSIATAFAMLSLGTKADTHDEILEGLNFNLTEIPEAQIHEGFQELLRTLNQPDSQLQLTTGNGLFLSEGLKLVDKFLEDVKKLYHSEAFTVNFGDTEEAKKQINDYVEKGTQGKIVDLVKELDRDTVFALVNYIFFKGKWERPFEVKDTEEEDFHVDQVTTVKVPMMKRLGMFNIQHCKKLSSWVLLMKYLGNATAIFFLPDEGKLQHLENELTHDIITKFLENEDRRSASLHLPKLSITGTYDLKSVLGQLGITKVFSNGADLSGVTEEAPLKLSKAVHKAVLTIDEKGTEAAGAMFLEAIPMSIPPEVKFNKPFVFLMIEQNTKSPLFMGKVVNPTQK

Substance: α1-antitrypsin (Prolastin, plasma-derived) (from UniProt P01009 25-418)
- pIC50 [1]: 6.10
- pIC50 [2]: 5.76

Reference: PMC11683240
